Reference: patent publication US20100291106A1 (Novartis, published 2010)
Where a chain is given by its changes, count along the chain named. Read-outs that look alike come from different tables or passages of the source.

B1: MOR09398 Fab (Fab, V domains shown)
VH: QVQLVESGGGLVQPGGSLRLSCAASGFTFSSYWMTWVRQAPGKGLEWVSSIKIKPDGYAASVKGRFTISRDNSKNTLYLQMNSLRAEDTAVYYCARLFYQYFARMDYWGQGTLVTVSS
VL: DIQMTQSPSSLSASVGDRVTITCRASQDISNYLNWYQQKPGKAPKLLIYAASNLQSGVPSRFSGSGSGTDFTLTISSLQPEDFATYYCQQWDSFSPTFGQGTKVEIKR
notes: also called Fab 9398
B2: MOR9556 Fab format (Fab, V domains shown)
VH: B1 VH with Q1E
VL: DIQMTQSPSSLSASVGDRVTITCRASQDISNYLNWYQQKPGKAPKLLIYAASNLQSGVPSRFSGSGSGTDFTLTISSLQPEDFATYYCQQYDSYSPTFGQGTKVEIK
B3: MOR09397 Fab (Fab, V domains shown)
VH: B1 VH
VL: B1 VL with W91H, S93T, S95R
notes: also called Fab 9397
B4: MOR9675 Fab format (Fab, V domains shown)
VH: EVQLVQSGAEVKKPGASVKVSCKASGYTFTGYYINWVRQAPGQGLEWMGIISPNQGTTGYAQKFQGRVTMTRDTSISTAYMELSSLRSEDTAVYYCARGNYDHLDYWGQGTLVTVSS
VL: DIQMTQSPSSLSASVGDRVTITCRASQGISNYLNWYQQKPGKAPKLLIYDASTLQSGVPSRFSGSGSGTDFTLTISSLQPEDFATYYCQQDWHTLPVTFGQGTKVEIK

Legend:
[1] = target: T1, human complement C3b protein (human, UniProt P01024 23-667; P01024 749-1663); test: cell-based or functional assay
[2] = target: T2, cynomolgus complement C3b protein (cynomolgus monkey (Macaca fascicularis)); test: cell-based or functional assay
[3] = target: T3, human C3d (human, UniProt P01024 1002-1303); test: cross reactivity, ELISA on C3d, anti-His detection
T3 construct: domain: C3d
Experimental: In order to determine whether the anti-C3b antibodies described herein can bind to complement pathway components iC3b and C3c, the following steps were performed: Directly add iC3b(complement Technologies A115), C3d (complement Technologies A117), or C3c (complement Technologies A116), at 2 μg/ml in Carbonate Buffer onto Coat Maxisorp plate Nunc (442404) at 100 μl per well. Seal plates and incubate at 4° C. overnight. Aspirate plates and wash 3 times with PBS/0.5% Tween 20. Block plates with Diluent (PBS, 4% BSA Fraction V (Fisher ICN16006980), 0.1% Tween 20 (Sigma P1379), 0.1% Triton X-100 (Sigma P234729)) and incubate for 2 h at room temperature or overnight at 4° C. Then wash plates once with PBS/0.5% Tween 20. Dilute Fabs at 100 nM and subsequent dilutions (or higher concentration if needed) in diluent and plate 100 μl per well. Incubate at room temperature for 1 h. Wash plates 3 times with PBS/0.5% Tween 20. Add 100 μl/well of anti-Histidine-HRP monoclonal detection antibody at 1:400 in diluent and incubate at room temperature for 1 h. Then wash 4 times with PBS/0.5% Tween 20. Add 100 μl of TMB substrate (Pierce 34028) and incubate at room temperature for up to 5 min. Add 50 μl of Stop solution (2N Sulfuric Acid) to each well and read plate at 450 nm and correct for plastic reading at 570 nm.

[4] = target: T1, human complement C3b protein; test: solution equilibrium titration (SET), ECL detection, Fab
[5] = target: T2, cynomolgus complement C3b protein; test: as above
[6] = target: T1, human complement C3b protein; test: SPR (Biacore), C3b captured by anti-C3d antibody, Fab as analyte
[7] = target: T2, cynomolgus complement C3b protein; test: as above
[8] = target: T1, human complement C3b protein; test: bead proximity assay, C3b-acceptor beads; competitor fP-donor beads
Experimental: (§1) For C3b-C3b and C3b-fP proximity, Fabs or IgGs respectively were pre-incubated with C3b-Acceptor beads (20 μg/ml) for 60 min at room temperature. C3b-Donor beads or fP-Donor beads (20 μg/ml) were then added, and the plate was incubated overnight at room temperature before reading. For C3b-fB and C3b-fH proximity, antibodies were pre-incubated with C3b-Acceptor beads (20 μg/ml) for 60 minutes at room temperature. Biotinylated fB(D24G/N260D) or fH were then added, and incubated for 60 minutes at room temperature. SA-Donor beads were then added (20 μg/ml) and the plate was incubated overnight at room temperature before reading. Plates were read on the BMG Pherastar (ex=680, em=520-620).

[9] = target: T1, human complement C3b protein; test: bead proximity assay, C3b-acceptor beads; competitor biotinylated fH
Experimental: as §1

[10] = target: T1, human complement C3b protein; test: bead proximity assay, C3b-acceptor beads; competitor biotinylated fB(D24G/N260D)
Experimental: as §1

[11] = target: T4, human C5 (human, UniProt P01031 19-673; P01031 678-1676); test: cross reactivity, capture ELISA with anti-C5 capture antibody, anti-His detection
T4 construct: Captured by an anti-C5 antibody in the ELISA

[12] = target: T1, human complement C3b protein; test: cell-based or functional assay; remark: listed apart in the source
[13] = target: T2, cynomolgus complement C3b protein; test: cell-based or functional assay; remark: listed apart in the source
[14] = target: T4, human C5; test: Direct ELISA at 2 ug/ml C5, 200 nM Fab
[15] = target: T3, human C3d; test: cross reactivity, ELISA on C3d, anti-His detection; remark: listed apart in the source
[16] = target: T1, human complement C3b protein; test: solution equilibrium titration (SET), ECL detection, Fab; remark: listed apart in the source
[17] = target: T2, cynomolgus complement C3b protein; test: as above; remark: listed apart in the source
[18] = target: T1, human complement C3b protein; test: SPR (Biacore), C3b captured by anti-C3d antibody, Fab as analyte; remark: listed apart in the source
[19] = target: T2, cynomolgus complement C3b protein; test: as above; remark: listed apart in the source
[20] = target: T1, human complement C3b protein; test: bead proximity assay, C3b-acceptor beads; competitor biotinylated fH; remark: listed apart in the source
Experimental: (§2) In brief, purified C3b and fP were conjugated to unconjugated acceptor or donor beads (PerkinElmer) using AminoLink Reductant (Pierce) during a 48 h incubation at room temperature. Beads were quenched using Carboxymethoxylamine Hemihydrochloride (Aldrich), and purified by centrifugation at 13000 rpm and three washes with 0.1M TBST. Purified fB(D24G/N260D) and fH were biotinylated during a 30 min incubation with 20-fold molar excess of NHS-Chromogenic-biotin (Pierce) at room temperature, and purified using Zeba 0.5 ml desalting columns (Pierce).
as §1

[21] = target: T1, human complement C3b protein; test: bead proximity assay, C3b-acceptor beads; competitor biotinylated fB(D24G/N260D); remark: listed apart in the source
Experimental: as §2, §1

T4 sequence (P01031 19-673 limits assumed, chain 1 of 2): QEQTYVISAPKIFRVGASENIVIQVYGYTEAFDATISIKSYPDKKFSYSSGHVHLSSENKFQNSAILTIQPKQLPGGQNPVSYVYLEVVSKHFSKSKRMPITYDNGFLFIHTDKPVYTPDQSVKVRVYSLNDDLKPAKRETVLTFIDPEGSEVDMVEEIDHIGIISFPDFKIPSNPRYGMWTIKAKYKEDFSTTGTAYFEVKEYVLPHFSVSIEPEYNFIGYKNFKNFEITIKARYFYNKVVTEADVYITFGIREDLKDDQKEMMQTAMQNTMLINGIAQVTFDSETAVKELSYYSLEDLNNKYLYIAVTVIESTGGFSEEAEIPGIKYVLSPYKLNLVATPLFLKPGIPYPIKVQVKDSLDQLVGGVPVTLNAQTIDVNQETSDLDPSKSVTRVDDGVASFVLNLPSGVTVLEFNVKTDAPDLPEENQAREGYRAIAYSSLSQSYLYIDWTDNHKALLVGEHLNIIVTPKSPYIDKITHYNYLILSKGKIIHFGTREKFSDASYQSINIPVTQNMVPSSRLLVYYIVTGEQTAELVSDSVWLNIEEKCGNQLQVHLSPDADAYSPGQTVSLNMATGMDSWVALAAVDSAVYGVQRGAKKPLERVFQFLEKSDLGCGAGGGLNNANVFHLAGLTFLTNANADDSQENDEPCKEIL
T4 sequence (P01031 678-1676 limits assumed, chain 2 of 2): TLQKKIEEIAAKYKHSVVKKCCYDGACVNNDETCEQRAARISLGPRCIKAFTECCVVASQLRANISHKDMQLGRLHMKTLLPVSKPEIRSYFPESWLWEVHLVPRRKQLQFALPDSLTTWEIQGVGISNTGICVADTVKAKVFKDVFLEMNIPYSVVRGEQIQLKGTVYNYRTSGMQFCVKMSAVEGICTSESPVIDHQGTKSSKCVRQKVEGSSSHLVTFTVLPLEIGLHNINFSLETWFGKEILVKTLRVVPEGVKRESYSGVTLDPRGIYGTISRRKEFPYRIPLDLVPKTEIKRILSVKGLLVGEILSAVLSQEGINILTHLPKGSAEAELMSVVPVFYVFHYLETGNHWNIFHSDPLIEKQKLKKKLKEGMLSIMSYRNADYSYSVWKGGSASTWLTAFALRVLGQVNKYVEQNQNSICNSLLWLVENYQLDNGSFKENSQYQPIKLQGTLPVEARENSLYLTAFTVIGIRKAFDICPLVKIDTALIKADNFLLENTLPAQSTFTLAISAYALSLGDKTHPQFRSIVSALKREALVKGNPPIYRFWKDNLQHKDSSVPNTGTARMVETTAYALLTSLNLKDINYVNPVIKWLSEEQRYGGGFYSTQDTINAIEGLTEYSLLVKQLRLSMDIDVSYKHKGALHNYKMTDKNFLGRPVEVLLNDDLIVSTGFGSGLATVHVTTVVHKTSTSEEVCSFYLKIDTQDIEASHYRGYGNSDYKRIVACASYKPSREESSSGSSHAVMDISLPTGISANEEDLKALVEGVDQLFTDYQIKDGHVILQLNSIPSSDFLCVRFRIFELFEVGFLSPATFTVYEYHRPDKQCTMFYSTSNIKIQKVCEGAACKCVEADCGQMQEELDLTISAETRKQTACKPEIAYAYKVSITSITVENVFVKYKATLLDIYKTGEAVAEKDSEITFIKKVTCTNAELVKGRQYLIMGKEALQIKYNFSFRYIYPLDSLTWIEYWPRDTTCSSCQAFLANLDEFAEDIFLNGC
T3 sequence (P01024 1002-1303 limits assumed): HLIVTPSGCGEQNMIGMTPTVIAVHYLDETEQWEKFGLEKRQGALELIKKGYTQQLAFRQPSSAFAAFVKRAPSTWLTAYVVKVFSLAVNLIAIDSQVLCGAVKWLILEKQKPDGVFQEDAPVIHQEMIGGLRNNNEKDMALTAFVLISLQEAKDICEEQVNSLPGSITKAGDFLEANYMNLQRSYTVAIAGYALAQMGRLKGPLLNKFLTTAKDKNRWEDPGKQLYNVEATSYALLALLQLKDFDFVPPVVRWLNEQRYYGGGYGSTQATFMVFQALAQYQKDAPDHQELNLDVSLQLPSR
T1 sequence (P01024 23-667 P314L, chain 1 of 2): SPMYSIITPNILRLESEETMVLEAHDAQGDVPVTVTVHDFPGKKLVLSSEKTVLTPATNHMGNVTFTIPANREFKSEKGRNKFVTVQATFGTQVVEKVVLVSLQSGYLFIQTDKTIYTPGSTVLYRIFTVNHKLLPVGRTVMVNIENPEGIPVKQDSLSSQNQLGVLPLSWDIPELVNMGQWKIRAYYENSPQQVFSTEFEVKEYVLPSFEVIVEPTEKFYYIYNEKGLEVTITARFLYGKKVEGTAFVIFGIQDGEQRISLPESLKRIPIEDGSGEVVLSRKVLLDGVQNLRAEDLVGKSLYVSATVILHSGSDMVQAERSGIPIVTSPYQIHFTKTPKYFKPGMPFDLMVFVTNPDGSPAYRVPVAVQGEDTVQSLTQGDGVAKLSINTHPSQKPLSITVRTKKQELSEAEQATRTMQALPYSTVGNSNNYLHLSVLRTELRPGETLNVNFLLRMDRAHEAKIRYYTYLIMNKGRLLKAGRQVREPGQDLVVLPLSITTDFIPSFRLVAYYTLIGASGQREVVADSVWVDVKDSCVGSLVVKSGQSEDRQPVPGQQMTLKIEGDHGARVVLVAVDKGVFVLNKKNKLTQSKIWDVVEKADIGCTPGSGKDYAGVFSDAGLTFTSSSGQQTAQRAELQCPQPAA
T1 sequence (P01024 749-1663, chain 2 of 2): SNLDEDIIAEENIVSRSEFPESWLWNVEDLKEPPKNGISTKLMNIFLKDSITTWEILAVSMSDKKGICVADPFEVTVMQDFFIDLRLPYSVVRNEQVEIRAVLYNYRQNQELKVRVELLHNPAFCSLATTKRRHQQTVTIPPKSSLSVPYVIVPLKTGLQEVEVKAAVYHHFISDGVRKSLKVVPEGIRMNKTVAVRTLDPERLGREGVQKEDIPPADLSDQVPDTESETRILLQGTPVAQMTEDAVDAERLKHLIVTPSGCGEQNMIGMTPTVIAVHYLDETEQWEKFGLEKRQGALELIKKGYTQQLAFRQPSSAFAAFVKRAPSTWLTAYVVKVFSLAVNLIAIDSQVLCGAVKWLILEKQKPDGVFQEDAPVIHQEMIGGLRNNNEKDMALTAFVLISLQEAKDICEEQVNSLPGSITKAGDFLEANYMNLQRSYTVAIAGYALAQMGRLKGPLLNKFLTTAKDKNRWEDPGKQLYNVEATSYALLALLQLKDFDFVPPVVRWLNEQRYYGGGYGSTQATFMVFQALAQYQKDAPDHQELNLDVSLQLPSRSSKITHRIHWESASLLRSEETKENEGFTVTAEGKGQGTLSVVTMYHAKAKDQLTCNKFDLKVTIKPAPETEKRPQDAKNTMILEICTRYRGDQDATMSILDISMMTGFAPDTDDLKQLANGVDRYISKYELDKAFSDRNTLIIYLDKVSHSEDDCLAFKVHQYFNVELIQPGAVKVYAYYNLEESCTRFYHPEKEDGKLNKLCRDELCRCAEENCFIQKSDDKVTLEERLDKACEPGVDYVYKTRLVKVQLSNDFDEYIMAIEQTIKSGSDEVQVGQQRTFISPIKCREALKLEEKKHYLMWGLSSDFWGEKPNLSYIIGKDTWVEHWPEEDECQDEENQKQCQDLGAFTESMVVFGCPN

Row | Binder | C3b Dep (nM), human serum, IC50 [1] | HA (nM), 10% human serum, IC50 [1] | MAC Dep (nM), human serum, IC50 [1] | C3b Dep (nM), cyno serum, IC50 [2] | HA (nM), 10% cyno serum, IC50 [2] | MAC Dep (nM), cyno serum, IC50 [2] | binding result [3] | Kd [4] | Kd [5] | Kd [6] | Kd [7] | IC50 [8] | IC50 [9] | IC50 [10] | binding result [11] | C3a (nM), human, inhibition of C3a generation [12] | C3b Dep (nM), human serum, IC50 [12] | C5a (nM), human, inhibition of C5a generation [12] | HA (nM), 10% human serum, IC50 [12] | MAC Dep (nM), human serum, IC50 [12] | other results
1 | B1 | 13 nM | 45 nM | 1 nM | 56 nM | 86 nM | 5 nM | no binding | 4 pM | 0.1 nM | 3 pM | 0.092 nM | 300 nM | 0.1 nM | 0.1 nM | no binding |  |  |  |  |  | 
2 | B2 |  |  |  |  |  |  |  |  |  |  |  |  |  |  |  | 90 nM | 24 nM | 17 nM | 62 nM | 4 nM | C3b Dep (nM), cyno serum, IC50 [13]: 43 nM; HA (nM), 10% cyno serum, IC50 [13]: 99 nM; MAC Dep (nM), cyno serum, IC50 [13]: 18 nM; binding result [14]: no binding (tested: 200 nM); binding result [15]: no binding; Kd [16]: 0.0015 nM; Kd [17]: 0.018 nM; Kd [18]: 0.0066 nM; Kd [19]: 0.042 nM; IC50 [20]: 0.2 nM; IC50 [21]: 0.15 nM
3 | B3 | 13 nM | 35 nM | 1 nM | 35 nM | 59 nM | 7 nM | no binding | 2 pM | 0.12 nM | 7 pM | 0.089 nM | 300 nM | 0.1 nM | 0.1 nM | no binding |  |  |  |  |  | 
4 | B4 |  |  |  |  |  |  |  |  |  |  |  |  |  |  |  | 97 nM | 11 nM | 36 nM | 60 nM | 3 nM | C3b Dep (nM), cyno serum, IC50 [13]: 43 nM; HA (nM), 10% cyno serum, IC50 [13]: 92 nM; MAC Dep (nM), cyno serum, IC50 [13]: 14 nM; binding result [14]: no binding (tested: 200 nM); binding result [15]: no binding; Kd [16]: 0.052 nM; Kd [17]: 0.241 nM; Kd [18]: 0.121 nM; Kd [19]: 0.562 nM; IC50 [20]: 0.2 nM; IC50 [21]: 1 nM
